Assay results: US20250262210A1 (TRUSTEES OF COLUMBIA UNIVERSITY IN THE CITY OF NEW YORK, published 2025)

Key:
Test in all cases: IP/MS, LZTR1 wild type-FLAG, U87
[1] = target: T1, SNX14 (human, UniProt Q9Y5W7 1-946, limits assumed)
T1 sequence (looked up): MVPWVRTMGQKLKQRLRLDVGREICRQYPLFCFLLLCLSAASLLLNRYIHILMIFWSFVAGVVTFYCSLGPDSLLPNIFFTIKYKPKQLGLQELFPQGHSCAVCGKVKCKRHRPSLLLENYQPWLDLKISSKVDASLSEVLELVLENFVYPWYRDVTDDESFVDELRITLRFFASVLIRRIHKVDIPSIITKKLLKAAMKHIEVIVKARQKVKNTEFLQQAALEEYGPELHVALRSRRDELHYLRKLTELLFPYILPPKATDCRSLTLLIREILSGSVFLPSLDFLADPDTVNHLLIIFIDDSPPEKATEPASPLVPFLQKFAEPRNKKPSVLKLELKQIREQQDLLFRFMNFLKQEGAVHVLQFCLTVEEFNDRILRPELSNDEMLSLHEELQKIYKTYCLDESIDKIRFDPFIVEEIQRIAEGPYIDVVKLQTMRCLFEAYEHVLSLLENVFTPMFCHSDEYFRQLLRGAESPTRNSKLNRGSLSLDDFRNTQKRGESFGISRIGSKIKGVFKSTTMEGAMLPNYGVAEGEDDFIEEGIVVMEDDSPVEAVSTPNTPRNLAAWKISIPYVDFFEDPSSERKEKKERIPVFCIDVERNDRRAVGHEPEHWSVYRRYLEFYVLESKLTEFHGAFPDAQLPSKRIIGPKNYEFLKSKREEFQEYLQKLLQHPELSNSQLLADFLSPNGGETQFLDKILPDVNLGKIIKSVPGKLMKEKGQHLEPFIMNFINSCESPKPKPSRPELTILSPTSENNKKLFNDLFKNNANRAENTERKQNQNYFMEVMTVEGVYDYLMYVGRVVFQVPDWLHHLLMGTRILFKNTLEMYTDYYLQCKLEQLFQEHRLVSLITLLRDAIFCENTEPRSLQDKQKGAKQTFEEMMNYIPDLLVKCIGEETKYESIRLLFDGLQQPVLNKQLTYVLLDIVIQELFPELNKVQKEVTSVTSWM
In short: (§1)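 Gel slices were reduced with 5 mM DTT, alkylated with 11 mM IAA and digested overnight at 37° C. with trypsin. Peptides were analysed on an Orbitrap Fusion Tribrid by LC-MS/MS.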

[2] = target: HERC2 (human, UniProt O95714 1-4834)
In short: as §1

[3] = target: VPS13A (human, UniProt Q96RL7 1-3174, limits assumed)
In short: as §1

[4] = target: HTT (human, UniProt P42858 1-3142)
Chain of HTT (P42858 whole entry): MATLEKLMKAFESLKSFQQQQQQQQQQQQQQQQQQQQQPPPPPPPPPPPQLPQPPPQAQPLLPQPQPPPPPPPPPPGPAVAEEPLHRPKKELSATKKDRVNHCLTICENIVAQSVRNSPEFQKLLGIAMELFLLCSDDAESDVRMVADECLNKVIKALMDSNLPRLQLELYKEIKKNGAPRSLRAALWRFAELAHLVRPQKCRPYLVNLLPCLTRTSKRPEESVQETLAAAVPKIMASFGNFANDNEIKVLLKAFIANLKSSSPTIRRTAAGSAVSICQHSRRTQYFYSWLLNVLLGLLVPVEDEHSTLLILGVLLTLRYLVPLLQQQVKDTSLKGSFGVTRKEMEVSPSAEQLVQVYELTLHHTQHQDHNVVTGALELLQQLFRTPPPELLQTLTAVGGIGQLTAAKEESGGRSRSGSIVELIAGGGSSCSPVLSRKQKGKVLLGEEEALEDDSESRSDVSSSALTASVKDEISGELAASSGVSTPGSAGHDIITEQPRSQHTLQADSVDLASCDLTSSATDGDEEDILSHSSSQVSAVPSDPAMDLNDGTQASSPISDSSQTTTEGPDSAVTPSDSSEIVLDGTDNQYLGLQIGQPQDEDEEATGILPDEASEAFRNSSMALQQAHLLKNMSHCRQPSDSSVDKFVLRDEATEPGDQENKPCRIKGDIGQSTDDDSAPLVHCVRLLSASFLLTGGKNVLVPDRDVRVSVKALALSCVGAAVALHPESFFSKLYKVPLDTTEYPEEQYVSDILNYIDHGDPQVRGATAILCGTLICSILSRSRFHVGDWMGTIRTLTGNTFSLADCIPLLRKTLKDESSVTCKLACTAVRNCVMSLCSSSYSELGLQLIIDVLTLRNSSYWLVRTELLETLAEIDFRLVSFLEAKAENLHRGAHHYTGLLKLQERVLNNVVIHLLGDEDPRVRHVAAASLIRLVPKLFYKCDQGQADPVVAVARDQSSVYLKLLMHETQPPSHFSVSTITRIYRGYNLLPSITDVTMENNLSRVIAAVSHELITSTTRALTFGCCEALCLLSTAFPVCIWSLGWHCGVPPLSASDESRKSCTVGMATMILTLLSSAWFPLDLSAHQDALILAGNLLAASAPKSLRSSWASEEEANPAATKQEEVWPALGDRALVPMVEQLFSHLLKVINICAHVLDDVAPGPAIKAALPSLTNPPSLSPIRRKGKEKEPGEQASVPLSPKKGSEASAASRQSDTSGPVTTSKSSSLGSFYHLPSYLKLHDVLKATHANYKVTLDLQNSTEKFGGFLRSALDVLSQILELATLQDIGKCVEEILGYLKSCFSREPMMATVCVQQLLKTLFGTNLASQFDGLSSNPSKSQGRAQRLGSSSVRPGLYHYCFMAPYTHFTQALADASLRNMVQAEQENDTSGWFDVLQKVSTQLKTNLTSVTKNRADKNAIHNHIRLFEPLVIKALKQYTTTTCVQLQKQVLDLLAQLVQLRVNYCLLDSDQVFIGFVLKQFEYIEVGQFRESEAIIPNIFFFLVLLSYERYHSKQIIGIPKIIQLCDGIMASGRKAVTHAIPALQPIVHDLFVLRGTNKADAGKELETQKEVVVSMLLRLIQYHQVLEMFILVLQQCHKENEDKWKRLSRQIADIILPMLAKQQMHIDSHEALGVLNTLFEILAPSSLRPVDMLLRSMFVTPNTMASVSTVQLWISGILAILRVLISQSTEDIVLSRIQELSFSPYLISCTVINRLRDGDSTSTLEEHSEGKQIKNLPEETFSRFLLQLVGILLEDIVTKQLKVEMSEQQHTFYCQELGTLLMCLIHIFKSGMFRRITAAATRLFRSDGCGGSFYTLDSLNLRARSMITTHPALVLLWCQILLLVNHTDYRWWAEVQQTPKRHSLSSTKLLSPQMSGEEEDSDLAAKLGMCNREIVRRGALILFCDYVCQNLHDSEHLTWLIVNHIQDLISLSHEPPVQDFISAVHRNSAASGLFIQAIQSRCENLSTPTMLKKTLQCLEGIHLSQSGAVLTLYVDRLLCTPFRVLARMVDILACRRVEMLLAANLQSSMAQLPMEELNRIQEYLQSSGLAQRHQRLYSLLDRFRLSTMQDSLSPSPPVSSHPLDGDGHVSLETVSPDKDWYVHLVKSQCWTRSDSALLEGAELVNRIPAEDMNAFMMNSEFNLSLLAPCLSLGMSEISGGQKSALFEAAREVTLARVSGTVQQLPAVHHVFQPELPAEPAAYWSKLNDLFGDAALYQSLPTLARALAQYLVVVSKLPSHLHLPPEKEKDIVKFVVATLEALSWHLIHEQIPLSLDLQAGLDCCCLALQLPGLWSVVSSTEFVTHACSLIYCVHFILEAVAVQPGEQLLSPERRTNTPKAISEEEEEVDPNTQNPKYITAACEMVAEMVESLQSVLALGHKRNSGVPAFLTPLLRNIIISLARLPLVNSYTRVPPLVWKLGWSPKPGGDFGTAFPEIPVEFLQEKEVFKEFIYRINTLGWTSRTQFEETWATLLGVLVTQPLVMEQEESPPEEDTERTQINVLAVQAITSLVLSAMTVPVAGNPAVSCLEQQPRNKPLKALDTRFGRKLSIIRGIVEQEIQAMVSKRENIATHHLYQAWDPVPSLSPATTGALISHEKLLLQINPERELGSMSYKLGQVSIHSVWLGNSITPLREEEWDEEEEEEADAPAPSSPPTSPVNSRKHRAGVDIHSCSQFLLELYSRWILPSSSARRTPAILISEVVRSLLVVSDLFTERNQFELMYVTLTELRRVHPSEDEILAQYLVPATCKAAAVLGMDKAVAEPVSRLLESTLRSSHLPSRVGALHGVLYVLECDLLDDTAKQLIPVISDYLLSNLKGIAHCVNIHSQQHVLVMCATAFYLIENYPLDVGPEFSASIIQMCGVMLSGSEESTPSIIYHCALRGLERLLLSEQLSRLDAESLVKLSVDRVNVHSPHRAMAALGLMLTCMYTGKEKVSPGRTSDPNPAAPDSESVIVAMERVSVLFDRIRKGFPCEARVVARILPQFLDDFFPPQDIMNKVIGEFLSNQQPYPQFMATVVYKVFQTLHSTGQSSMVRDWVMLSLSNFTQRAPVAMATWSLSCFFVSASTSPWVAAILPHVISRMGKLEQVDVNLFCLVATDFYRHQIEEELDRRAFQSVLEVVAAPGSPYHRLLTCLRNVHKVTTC
In short: as §1

[5] = target: T2, HECTD3 (human, UniProt Q5T447 2-861, limits assumed)
T2 sequence (looked up): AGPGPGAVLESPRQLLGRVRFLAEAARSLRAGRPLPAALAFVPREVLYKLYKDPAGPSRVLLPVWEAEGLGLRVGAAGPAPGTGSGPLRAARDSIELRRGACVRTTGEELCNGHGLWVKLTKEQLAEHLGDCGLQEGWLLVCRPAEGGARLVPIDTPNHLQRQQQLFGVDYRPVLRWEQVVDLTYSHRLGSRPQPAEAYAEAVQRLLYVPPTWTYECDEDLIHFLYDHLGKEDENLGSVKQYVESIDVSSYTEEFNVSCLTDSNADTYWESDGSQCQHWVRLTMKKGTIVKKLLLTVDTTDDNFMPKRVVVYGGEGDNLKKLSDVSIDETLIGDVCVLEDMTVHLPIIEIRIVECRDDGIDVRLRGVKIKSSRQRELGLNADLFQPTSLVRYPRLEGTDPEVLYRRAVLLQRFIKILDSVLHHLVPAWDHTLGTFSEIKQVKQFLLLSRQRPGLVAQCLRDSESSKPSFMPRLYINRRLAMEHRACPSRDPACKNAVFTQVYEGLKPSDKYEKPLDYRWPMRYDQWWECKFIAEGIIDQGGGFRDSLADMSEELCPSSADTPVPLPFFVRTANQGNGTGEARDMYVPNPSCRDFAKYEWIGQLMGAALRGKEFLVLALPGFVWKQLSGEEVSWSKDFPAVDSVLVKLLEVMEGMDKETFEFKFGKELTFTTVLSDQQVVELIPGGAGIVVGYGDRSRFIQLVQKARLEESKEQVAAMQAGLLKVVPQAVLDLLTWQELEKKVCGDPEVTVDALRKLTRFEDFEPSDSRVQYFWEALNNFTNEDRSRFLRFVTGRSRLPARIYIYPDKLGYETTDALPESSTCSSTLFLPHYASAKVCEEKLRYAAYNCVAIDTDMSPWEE
In short: as §1

Measured: binding result

B1: LZTR1-FLAG (other, human, UniProt Q8N653 1-840, looked up)
chain: MAGPGSTGGQIGAAALAGGARSKVAPSVDFDHSCSDSVEYLTLNFGPFETVHRWRRLPPCDEFVGARRSKHTVVAYKDAIYVFGGDNGKTMLNDLLRFDVKDCSWCRAFTTGTPPAPRYHHSAVVYGSSMFVFGGYTGDIYSNSNLKNKNDLFEYKFATGQWTEWKIEGRLPVARSAHGATVYSDKLWIFAGYDGNARLNDMWTIGLQDRELTCWEEVAQSGEIPPSCCNFPVAVCRDKMFVFSGQSGAKITNNLFQFEFKDKTWTRIPTEHLLRGSPPPPQRRYGHTMVAFDRHLYVFGGAADNTLPNELHCYDVDFQTWEVVQPSSDSEVGGAEVPERACASEEVPTLTYEERVGFKKSRDVFGLDFGTTSAKQPTQPASELPSGRLFHAAAVISDAMYIFGGTVDNNIRSGEMYRFQFSCYPKCTLHEDYGRLWESRQFCDVEFVLGEKEECVQGHVAIVTARSRWLRRKITQARERLAQKLEQEAAPVPREAPGVAAGGARPPLLHVAIREAEARPFEVLMQFLYTDKIKYPRKGHVEDVLLIMDVYKLALSFQLCRLEQLCRQYIEASVDLQNVLVVCESAARLQLSQLKEHCLNFVVKESHFNQVIMMKEFERLSSPLIVEIVRRKQQPPPRTPLDQPVDIGTSLIQDMKAYLEGAGAEFCDITLLLDGHPRPAHKAILAARSSYFEAMFRSFMPEDGQVNISIGEMVPSRQAFESMLRYIYYGEVNMPPEDSLYLFAAPYYYGFYNNRLQAYCKQNLEMNVTVQNVLQILEAADKTQALDMKRHCLHIIVHQFTKVSKLPTLRSLSQQLLLDIIDSLASHISDKQCAELGADI
notes: Expressed in HEK 293T, HeLa or U87 cells; used as cell lysate; also called LZTR1 wild type-FLAG; LZTR1 WT; not shown: FLAG tag at the C-terminus
binds: all assays above
